Experimental data taken from patent publication US20230203142A1, “TREATMENT OF METABOLIC DISORDERS THROUGH THE TARGETING OF A NOVEL CIRCULATING HORMONE COMPLEX” (The President and Fellows of Harvard College, priority 2020, published 2023).

Tests used:
Human NDPK-A = target: T1, Human NDPK-A (Homo sapiens, UniProt P15531); experiment: Microscale Thermophoresis (MST) one-to-one protein interaction with NDPK; conditions: recombinant proteins, binding to NDPK
T1 construct: purchased Acro Biosystems NM1-H5147
Experimental: Additionally, one-to-one recombinant protein interaction assays were performed using Microscale Thermophoresis (MST) to independently validate the interactions between each of the proposed complex components. MST is a technology for the interaction analysis of biomolecules. MST is the directed movement of particles in a microscopic temperature gradient. Any change of the hydration shell of biomolecules due to changes in their structure/conformation results in a relative change of the movement along the temperature gradient and is used to determine binding affinities. MST allows measurement of interactions directly in solution without the need of immobilization to a surface (immobilization-free technology).
To perform this technique, proteins were desalted and buffer exchanged into PBS prior to labeling. […] Experiments were conducted independently with each of NDPK and ADK labeled with each kit (i.e., experiments were performed with lysine-labeled, cysteine-labeled, and His-labeled versions of each protein to confirm the site of labeling was not influencing detected interaction). […] Concentration of labeled proteins ranged from 12 nM to 20 nM, as determined by MST quantification to obtain a fluorescence intensity of ˜350 from each capillary tube. […]

recombinant NDPK = target: T2, recombinant NDPK (Homo sapiens, UniProt P15531); experiment: Recombinant kinase activity assay, NDPK (ADP-Glo/Kinase-Glo); format: biochemical; conditions: recombinant NDPK plus the added component
T2 construct: purchased Acro Biosystems NM1-H5147
Experimental: (§1) An on-bead kinase assay was developed to measure the activity of endogenous NDPK and ADK pulled down from serum using a-Ab or c-Ab conjugated beads. Both NDPK and ADK are bi-directional kinases that will produce ATP or ADP depending on the substrates provided (FIGS. 4B-C). Kinase activity assays were performed in 384-well plates in reaction buffer (PBS with 0.1% BSA, 0.01% F-127, 5 mM MgCl2). Experiments with recombinant proteins were performed at final concentrations of 40 μg/ml for ADK and FABP4, and 20 ug/ml for NDPK, and a reaction volume of 10 μl. Antibodies were used at a final concentration of 80 ug/ml. Substrates were added in equimolar ratios depending on the kinase being assayed and the direction of the reaction in serial dose responses, with the highest concentration of 5 μM. Proteins and substrates were incubated for 1 hr at room temperature, and ADP and ATP production were monitored using ADP-Glo and Kinase-Glo kits, respectively, according the manufacturer instructions (V6930 and V6711 Promega, USA). Luminescence was quantified using a SpectraMax Paradigm plate reader 30 min after the addition of substrate. Consistent with the MS results, ADK activity, as measured by generation of ATP, was specifically observed in samples pulled down with a-Ab but not c-Ab (FIG. 5A). […] To test this possibility, the ATP and ADP generating activity of recombinant ADK was assessed in the presence of the proposed complex components.

WT NOD mice = experiment: Acute FABP4 administration; format: in vivo, mouse; conditions: 20 minutes post-injection, vs vehicle-injected controls
Experimental: (§2) Given the essential role for appropriate beta cell function and insulin secretion in the pathogenesis of diabetes, the pancreata of FABP4 deficient (FABP4^−/−) mice were examined for beta cell mass and insulin content. Animal care and experimental procedures were performed with approval from animal care committees of Harvard University. All mice were housed on a 12-hour light/dark cycle with ad libitum access to chow (PicoLab 5058 LabDiet) and water. FABP4−/− and WT mice were littermates obtained from heterozygous breeding. High fat diet (HFD) fed mice were provided ad libitum access to HFD (60% kcal from fat; Research Diets Inc., D12492i) for 14 weeks beginning at 4 weeks of age. Pancreata and isolated islets were obtained from 7-8-week-old male mice. Blood was collected every other week for 6 hour fasting plasma insulin and FABP4 levels. For acute FABP4 treatment, 10 μg of human recombinant FABP4 (produced in-house) or sterile PBS was injected intraperitoneally. Blood was collected from the tail vein at 0, 10, 20, 30, 60, 120, 240- and 360-minutes post injection for measurement of blood glucose, plasma insulin, and FABP4 levels.

WT mice = experiment: Acute FABP4 administration; format: in vivo, mouse; conditions: 20 minutes post-injection, vs vehicle-injected controls
Experimental: as §2

recombinant ADK = target: T3, recombinant ADK (Homo sapiens, UniProt P55263); experiment: Recombinant kinase activity assay, ADK (Kinase-Glo); format: biochemical; conditions: recombinant ADK plus the added component
T3 construct: purchased Novus Biologicals or R&D Systems NBP1-44382 or 8024-AK-025
Experimental: as §1

primary mouse islets = experiment: Glucose-stimulated insulin secretion (GSIS), mouse islets; format: cell-based
Experimental: Primary islet isolation from mice was performed as previously described (Batchuluun et al., 2018; Prentice et al., 2014) and GSIS was assessed following acute treatment with NDPK-ADK in the presence or absence of FABP4. Insulin secretion assays were performed as previously described (Prentice et al., 2014). For primary islets, 20 islets were hand-picked into 1.5 ml tubes, washed twice with Krebs Ringer Buffer (KRB) without glucose, and pre-incubated in 500 μl low glucose (LG; 2.8 mM) KRB for 1 hour at 37° C. KRB was then removed and 250 μl of fresh LG KRB added. Islets were incubated for 20 minutes at 37° C. Supernatant was collected and 250 μl high glucose (HG; 16.7 mM) KRB added. Islets were incubated for 20 minutes at 37° C. In conditions where KCl was used, HG KRB was collected, and 250 μl KC1 (16.7 mM glucose, 30 mM KCl) KRB added. Islets were incubated for 20 minutes at 37° C., and supernatant collected. Following the stimulation protocol, cells were lysed in 100 μl acid ethanol (70% ethanol, 1% HCl in water) and stored at 4° C. overnight. Samples were evaporated using a SpeedVac until dried, and resuspended in 60 μl ultrapure water. DNA was quantified by Nanodrop (ThermoFisher, USA). Insulin from supernatant was quantified using insulin HTRF (Insulin Ultrasensitive Assay kit 62IN2PEH; Cisbio, USA).

T2 sequence (P15531 whole entry): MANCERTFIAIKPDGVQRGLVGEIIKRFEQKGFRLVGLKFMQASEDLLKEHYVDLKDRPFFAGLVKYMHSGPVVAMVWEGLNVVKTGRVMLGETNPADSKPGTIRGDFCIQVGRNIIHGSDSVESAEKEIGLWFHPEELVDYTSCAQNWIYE
T1 sequence (P15531 whole entry): as above

B1: ADK: recombinant human adenosine kinase (Novus Biologicals or R&D Systems) (protein, listed as Homo sapiens)
chain: MAAAEEEPKPKKLKVEAPQALRENILFGMGNPLLDISAVVDKDFLDKYSLKPNDQILAEDKHKELFDELVKKFKVEYHAGGSTQNSIKVAQWMIQQPHKAATFFGCIGIDKFGEILKRKAAEAHVDAHYYEQNEQPTGTCAACITGDNRSLIANLAAANCYKKEKHLDLEKNWMLVEKARVCYIAGFFLTVSPESVLKVAHHASENNRIFTLNLSAPFISQFYKESLMKVMPYVDILFGNETEAATFAREQGFETKDIKEIAKKTQALPKMNSKRQRIVIFTQGRDDTIMATESEVTAFAVLDQDQKEIIDTNGAGDAFVGGFLSQLVSDKPLTECIRAGHYAASIIIRRTGCTFPEKPDFH
Kd (Human NDPK-A): ~1.8 nM
activity of NDPK to generate ADP (recombinant NDPK): significantly reduced
capacity of NDPK to produce ATP (recombinant NDPK): no effect

B2: FABP4: human recombinant FABP4 (produced in-house) (protein)
chain: CDAFVGTWKLVSSENFDDYMKEVGVGFATRKVAGMAKPNMIISVNGDVITIKSESTFKNTEISFILGQEFDEVTADDRKVKSTITLDGGVLVHVQKWDGKSTTIKRKREDDKLVVECVMKGVTSTRVYERA
plasma insulin (WT NOD mice): significant reduction
blood glucose levels (WT mice): significantly increased
ADK activity to generate ATP (recombinant ADK): significantly increased
activity of NDPK to generate ADP (recombinant NDPK): not further influenced
capacity of NDPK to produce ATP (recombinant NDPK): no effect
GSIS (primary mouse islets; primary / WT mouse islets): no effect
NDPK-ADK-enhanced GSIS response (primary mouse islets; primary mouse islets, added to NDPK-ADK): significantly blunted
